Patent US20030108545A1
Several values for one entry are separate records, joined by “and”; a condition that tells them apart may be missing. Identical values can stand only once. Like-named read-outs stand apart in the source and are kept apart here. Blank lines part the entries; values can stand above or below the binder they belong to.

Columns and labels:
[1] = molecular target: soluble fusion protein KDR-AP (KDR (VEGFR-2) extracellular domain fused to human placental alkaline phosphatase) (human) (UniProt P35968); assay: competitive VEGF blocking ELISA: KDR-AP binding to immobilized VEGF165
Chain of soluble fusion protein KDR-AP (KDR (VEGFR-2) extracellular domain fused to human placental alkaline phosphatase) (human) (P35968 other isoform, or with tags, fused parts or gaps): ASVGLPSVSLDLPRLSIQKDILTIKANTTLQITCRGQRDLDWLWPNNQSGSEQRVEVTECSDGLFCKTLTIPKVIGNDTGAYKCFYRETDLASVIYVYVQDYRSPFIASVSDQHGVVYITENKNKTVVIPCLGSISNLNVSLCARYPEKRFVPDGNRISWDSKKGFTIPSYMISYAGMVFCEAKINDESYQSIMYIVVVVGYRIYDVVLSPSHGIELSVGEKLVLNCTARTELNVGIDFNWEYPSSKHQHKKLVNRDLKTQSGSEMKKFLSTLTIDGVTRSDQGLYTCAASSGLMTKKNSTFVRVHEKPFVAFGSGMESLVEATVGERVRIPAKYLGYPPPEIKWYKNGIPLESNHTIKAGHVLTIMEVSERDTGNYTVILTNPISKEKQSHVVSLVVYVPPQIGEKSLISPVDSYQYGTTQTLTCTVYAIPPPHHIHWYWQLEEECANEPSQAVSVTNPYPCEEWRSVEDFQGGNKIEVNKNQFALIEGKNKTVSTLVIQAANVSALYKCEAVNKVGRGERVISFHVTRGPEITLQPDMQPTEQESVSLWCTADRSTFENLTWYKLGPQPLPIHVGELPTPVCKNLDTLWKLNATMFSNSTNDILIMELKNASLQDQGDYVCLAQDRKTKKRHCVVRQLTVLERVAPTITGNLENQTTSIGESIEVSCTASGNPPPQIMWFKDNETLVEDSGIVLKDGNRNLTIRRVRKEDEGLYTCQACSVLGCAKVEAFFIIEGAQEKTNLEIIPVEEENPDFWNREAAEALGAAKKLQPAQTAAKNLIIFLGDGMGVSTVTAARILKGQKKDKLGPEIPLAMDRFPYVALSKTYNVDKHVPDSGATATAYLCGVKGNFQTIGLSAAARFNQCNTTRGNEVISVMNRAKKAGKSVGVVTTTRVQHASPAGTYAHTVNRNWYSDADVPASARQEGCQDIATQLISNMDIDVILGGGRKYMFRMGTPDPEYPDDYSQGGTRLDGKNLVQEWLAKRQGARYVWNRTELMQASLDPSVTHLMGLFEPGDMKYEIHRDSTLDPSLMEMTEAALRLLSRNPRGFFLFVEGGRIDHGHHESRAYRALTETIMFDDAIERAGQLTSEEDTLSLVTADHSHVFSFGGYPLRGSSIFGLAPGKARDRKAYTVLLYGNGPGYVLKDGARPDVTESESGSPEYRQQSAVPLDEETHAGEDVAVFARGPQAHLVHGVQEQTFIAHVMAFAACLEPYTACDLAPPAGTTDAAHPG

[2] = molecular target: human KDR (VEGFR-2), immobilized on ELISA plates (construct not stated) (human) (UniProt P35968); assay: direct binding ELISA on KDR-coated plates (ED50, 50% of maximum binding)
Chain of human KDR (VEGFR-2), immobilized on ELISA plates (construct not stated) (human) (P35968 20-764 limits assumed): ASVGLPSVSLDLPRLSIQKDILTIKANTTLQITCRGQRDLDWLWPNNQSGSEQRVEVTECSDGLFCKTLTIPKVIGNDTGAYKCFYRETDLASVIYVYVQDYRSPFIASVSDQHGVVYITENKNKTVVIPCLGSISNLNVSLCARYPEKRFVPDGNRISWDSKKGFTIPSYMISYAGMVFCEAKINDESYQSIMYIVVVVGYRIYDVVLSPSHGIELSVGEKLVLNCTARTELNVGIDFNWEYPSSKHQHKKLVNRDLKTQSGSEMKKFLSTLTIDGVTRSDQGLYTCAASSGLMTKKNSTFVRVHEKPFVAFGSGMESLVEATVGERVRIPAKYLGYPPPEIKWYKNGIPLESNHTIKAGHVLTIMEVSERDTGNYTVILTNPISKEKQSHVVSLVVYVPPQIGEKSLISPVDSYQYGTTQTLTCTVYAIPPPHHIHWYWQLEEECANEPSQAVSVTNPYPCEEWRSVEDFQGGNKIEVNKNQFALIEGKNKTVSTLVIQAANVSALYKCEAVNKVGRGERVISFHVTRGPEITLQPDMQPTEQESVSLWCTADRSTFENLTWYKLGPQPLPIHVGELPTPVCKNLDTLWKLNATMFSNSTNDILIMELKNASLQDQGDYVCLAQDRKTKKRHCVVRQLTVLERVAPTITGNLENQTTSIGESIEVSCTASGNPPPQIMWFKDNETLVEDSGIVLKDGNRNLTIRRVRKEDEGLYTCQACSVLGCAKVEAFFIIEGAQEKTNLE

[3] = molecular target: human KDR (VEGFR-2), immobilized on ELISA plates (construct not stated) (human) (UniProt P35968); assay: direct binding ELISA on KDR-coated plates, anti-E tag-HRP detection
[4] = molecular target: soluble fusion protein KDR-AP (KDR (VEGFR-2) extracellular domain fused to human placental alkaline phosphatase) (human) (UniProt P35968); assay: BIAcore, KDR-AP immobilized
[5] = molecular target: KDR (VEGFR-2) expressed on the surface of HUVEC (human) (UniProt P35968); assay: cell-based or functional assay
Chain of KDR (VEGFR-2) expressed on the surface of HUVEC (human) (P35968 20-1356): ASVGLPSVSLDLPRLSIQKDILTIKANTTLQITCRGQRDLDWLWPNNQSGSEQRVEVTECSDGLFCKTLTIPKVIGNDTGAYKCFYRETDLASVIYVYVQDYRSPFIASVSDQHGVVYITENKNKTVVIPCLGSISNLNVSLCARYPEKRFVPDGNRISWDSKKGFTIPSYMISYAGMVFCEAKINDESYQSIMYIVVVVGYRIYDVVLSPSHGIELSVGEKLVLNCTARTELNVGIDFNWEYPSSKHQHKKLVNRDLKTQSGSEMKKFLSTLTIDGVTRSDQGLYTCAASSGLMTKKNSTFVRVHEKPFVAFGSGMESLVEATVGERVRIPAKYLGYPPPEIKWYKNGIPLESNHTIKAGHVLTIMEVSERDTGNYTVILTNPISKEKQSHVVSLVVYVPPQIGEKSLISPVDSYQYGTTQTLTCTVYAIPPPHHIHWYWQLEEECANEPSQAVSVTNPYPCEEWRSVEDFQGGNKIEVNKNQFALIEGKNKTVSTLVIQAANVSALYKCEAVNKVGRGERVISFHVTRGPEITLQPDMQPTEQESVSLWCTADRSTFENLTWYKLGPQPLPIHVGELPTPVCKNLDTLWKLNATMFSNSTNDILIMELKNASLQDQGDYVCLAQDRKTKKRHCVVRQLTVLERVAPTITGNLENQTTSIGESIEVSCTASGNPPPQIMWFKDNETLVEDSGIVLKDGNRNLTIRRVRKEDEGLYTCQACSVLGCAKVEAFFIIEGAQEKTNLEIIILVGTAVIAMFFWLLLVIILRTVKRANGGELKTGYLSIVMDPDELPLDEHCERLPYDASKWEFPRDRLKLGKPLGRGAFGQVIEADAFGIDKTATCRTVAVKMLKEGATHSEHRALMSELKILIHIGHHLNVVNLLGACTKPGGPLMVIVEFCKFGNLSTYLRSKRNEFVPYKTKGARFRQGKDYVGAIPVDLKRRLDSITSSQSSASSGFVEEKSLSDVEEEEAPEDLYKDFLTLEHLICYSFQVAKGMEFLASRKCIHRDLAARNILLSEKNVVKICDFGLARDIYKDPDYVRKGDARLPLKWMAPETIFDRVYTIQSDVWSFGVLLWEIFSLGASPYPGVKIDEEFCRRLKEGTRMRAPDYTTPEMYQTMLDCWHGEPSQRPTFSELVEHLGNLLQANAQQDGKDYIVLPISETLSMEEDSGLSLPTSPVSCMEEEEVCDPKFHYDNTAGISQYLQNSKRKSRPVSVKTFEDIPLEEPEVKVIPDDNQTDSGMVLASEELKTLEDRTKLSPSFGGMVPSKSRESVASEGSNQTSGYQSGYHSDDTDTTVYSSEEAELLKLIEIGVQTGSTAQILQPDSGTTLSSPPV

[6] = molecular target: soluble fusion protein KDR-AP (KDR (VEGFR-2) extracellular domain fused to human placental alkaline phosphatase) (human) (UniProt P35968); assay: competitive ELISA: KDR-AP binding to immobilized VEGF165
[7] = molecular target: soluble fusion protein KDR-AP (KDR (VEGFR-2) extracellular domain fused to human placental alkaline phosphatase) (human) (UniProt P35968); assay: BIAcore, KDR-AP immobilized; remark: listed apart in the source
[8] = molecular target: chimeric receptor mouse flk-1 (VEGFR-2)/human fms on transfected 3T3 cells (C441) (mouse; human) (UniProt P35918); assay: saturation binding to intact C441 cells, colorimetric detection (FIG. 7)
Chain of chimeric receptor mouse flk-1 (VEGFR-2)/human fms on transfected 3T3 cells (C441) (mouse; human) (P35918 other isoform, or with tags, fused parts or gaps mutant limits assumed): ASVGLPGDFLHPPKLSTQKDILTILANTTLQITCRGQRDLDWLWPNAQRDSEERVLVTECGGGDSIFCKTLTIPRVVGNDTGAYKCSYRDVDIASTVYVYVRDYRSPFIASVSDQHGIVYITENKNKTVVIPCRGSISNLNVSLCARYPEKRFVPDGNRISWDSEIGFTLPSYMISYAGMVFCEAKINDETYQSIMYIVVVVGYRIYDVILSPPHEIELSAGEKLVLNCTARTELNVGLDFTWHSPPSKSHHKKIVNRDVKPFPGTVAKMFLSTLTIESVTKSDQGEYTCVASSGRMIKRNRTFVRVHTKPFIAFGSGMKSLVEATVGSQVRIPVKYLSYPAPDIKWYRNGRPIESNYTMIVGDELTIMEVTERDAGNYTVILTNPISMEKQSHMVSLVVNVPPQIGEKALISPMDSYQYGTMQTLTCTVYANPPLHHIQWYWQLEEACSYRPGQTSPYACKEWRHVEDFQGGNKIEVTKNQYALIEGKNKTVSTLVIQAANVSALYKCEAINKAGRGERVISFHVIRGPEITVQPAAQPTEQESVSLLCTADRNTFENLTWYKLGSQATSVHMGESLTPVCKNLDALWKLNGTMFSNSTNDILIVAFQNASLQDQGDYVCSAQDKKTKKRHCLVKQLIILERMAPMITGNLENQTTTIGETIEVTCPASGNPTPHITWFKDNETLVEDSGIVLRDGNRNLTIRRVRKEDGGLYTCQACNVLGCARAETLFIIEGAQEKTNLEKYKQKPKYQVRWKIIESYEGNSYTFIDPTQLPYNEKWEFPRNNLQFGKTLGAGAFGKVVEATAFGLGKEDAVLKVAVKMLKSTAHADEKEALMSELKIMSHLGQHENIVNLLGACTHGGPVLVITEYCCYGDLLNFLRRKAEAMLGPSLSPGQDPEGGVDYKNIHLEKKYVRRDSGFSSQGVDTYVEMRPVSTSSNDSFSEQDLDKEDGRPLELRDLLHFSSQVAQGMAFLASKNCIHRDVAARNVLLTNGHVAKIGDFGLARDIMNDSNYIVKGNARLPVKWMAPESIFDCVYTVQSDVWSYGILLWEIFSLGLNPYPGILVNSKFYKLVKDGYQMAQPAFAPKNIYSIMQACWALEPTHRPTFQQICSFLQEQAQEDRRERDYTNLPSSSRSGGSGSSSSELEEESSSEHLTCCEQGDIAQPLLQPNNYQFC

[9] = molecular target: chimeric receptor mouse flk-1 (VEGFR-2)/human fms on transfected 3T3 cells (C441) (mouse; human) (UniProt P35918); assay: cell-based or functional assay
[10] = scale: % of the fully stimulated receptor control

- IC50 [1]: 3 nM
- EC50 [2]: 0.3 nM
- EC50 (read off the curve) [3]: 1 nM
- Kd [4]: 2.1 nM
- koff [4]: 0.00023 s⁻¹
- kon [4]: 110000 M⁻¹ s⁻¹
- EC50 of inhibition of VEGF induced DNA synthesis ([3H]-TdR) in HUVEC [5]: 5 nM
- antibody concentration required to inhibit 50% of VEGF-induced mitogenesis of HUVEC [5]: 6 nM
- IC50 [6]: 2 nM
- koff [7]: 0.000227 s⁻¹
- kon [7]: 111000 M⁻¹ s⁻¹
B1: anti-KDR (VEGFR-2) single chain antibody scFv p1C11 (scFv, from a related filing, not shown: small tags and cut ends)
scFv: QVKLQQSGAELVGSGASVKLSCTTSGFNIKDFYMHWVKQRPEQGLEWIGWIDPENGDSDYAPKFQGKATMTADSSSNTAYLQLSSLTSEDTAVYYCNAYYGDYEGYWGQGTTVTVSSGGGGSGGGGSGGGGSDIELTQSPAIMSASPGEKVTITCSASSSVSYMHWFQQKPGTSPKLWIYSTSNLASGVPARFSGSGSGTSYSLTISRMEAEDAATYYCQQRSSYPFTFGSGTKLEIK

- relative apparent affinity [8]: 500 ng/mL
- phosphorylation of flk-1 (VEGFR-2) by VEGF165 (40 ng/ml), antibody titration [9]: > 0.5 µg/mL and < 1 µg/mL
- phosphorylation level by densitometry, antibody added with ligand (C) [9, 10]: 40
- phosphorylation level by densitometry, antibody prebound (P) [9, 10]: 6
B2: rat anti-mouse flk-1 (VEGFR-2) monoclonal antibody DC-101 (antibody, from another filing, V domains shown)
VH: EVQLVETGGGLVQPGNSLKLSCATSGFIFSTTWMNWIRQTPGKRLEWLAQIEDKSNNYFISYSESVKGRFTISRDDSKSSVYLQMNNLKEEDTAIYYCSWKYRSNYYFDYWGQGVMVTVSS
VL: DIVLTQSPALAVSLEQRATISCKTSQNVDYYGISYLHWYQQKPGQQPKLLIYEGSNLASGIPARFSGSGSGTDFTLTIDPVEADDIVTYYCQQSKDYPYTFGAGTKLELKR
